T1: Factor VIIIa (recombinant FVIII, Kogenate FS, Bayer healthcare, activated with alpha-thrombin) (UniProt P00451 20-2351, limits assumed)
T1 construct: also called FVIIIa; cofactor
T1 sequence (looked up): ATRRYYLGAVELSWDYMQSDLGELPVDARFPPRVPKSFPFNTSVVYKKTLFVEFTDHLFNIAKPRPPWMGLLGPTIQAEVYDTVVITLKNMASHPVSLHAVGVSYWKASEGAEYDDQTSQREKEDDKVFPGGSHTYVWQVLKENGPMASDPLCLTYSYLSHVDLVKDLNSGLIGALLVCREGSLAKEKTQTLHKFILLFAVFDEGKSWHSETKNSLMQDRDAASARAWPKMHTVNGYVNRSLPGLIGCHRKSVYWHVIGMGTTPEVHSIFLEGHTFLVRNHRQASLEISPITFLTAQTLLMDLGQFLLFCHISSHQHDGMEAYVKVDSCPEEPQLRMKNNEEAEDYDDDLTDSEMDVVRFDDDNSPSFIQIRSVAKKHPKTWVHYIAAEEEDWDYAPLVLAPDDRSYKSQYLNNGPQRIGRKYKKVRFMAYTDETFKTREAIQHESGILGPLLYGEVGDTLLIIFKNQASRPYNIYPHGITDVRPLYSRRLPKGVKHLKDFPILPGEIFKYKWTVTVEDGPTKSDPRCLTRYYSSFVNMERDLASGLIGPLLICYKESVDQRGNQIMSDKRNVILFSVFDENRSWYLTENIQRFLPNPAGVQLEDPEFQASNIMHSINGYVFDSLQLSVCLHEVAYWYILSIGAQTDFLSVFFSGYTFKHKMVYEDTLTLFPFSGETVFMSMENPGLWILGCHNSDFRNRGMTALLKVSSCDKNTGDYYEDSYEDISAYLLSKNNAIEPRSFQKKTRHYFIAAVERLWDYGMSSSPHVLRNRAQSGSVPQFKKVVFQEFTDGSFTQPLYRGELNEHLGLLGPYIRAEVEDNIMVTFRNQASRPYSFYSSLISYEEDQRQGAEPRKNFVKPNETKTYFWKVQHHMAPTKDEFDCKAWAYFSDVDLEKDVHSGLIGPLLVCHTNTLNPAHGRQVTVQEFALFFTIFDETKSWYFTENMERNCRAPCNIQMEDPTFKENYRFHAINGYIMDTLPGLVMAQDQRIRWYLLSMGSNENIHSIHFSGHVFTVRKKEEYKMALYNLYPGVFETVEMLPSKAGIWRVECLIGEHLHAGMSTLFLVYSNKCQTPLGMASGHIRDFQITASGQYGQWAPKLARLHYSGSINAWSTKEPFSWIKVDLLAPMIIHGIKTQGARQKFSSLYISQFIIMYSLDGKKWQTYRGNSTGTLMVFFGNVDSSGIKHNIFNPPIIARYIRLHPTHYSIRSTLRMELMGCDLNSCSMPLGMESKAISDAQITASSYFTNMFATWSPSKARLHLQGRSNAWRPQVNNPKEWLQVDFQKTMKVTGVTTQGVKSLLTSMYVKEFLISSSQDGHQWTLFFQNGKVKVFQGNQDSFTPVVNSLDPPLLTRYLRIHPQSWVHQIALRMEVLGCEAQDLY


Target: T1, Factor VIIIa (recombinant FVIII, …)
Experiment: same assay; KD-app of Catalyst Biosciences WT FIXa divided by KD-app of the variant
Protocol: The molar concentration of FVIII was then determined by absorbance at 280 nm using an extinction coefficient of 1.567 mg⁻¹ mL cm⁻¹ and a molecular weight of 163.6 kDa.

Binder	KD-WT/KD-mut
FIXa-A103N/N105S/K247N/N249S/R318Y/R338E/R403E/E410N (enzyme) chain 1: YNSGKLEEFVQGNLERECMEEKCSFEEAREVFENTERTTEFWKQYVDGDQCESNPCLNGGSCKDDINSYECWCPFGFEGKNCELDVTCNIKNGRCEQFCKNSNDSKVVCSCTEGYRLAENQKSCEPAVPFPCGRVSVSQTSKLTR chain 2: VVGGEDAKPGQFPWQVVLNGKVDAFCGGSIVNEKWIVTAAHCVETGVKITVVAGEHNIEETEHTEQNRSVIRIIPHHNYNAAINKYNHDIALLELDEPLVLNSYVTPICIADKEYTNIFLKFGSGYVSGWGRVFHKGYSALVLQYLRVPLVDRATCLESTKFTIYNNMFCAGFHEGGRDSCQGDSGGPHVTEVEGTSFLTGIISWGEECAMKGKYGIYTKVSEYVNWIKNKTKLT	1 ratio
FIXa-I251S/R318Y/R338E/E410N (enzyme, also called I251S/R318Y/E410N/R338E; I86S/R150Y/R170E/E240N (chymotrypsin numbering)) chain 1: YNSGKLEEFVQGNLERECMEEKCSFEEAREVFENTERTTEFWKQYVDGDQCESNPCLNGGSCKDDINSYECWCPFGFEGKNCELDVTCNIKNGRCEQFCKNSADNKVVCSCTEGYRLAENQKSCEPAVPFPCGRVSVSQTSKLTR chain 2: VVGGEDAKPGQFPWQVVLNGKVDAFCGGSIVNEKWIVTAAHCVETGVKITVVAGEHNIEETEHTEQKRNVSRIIPHHNYNAAINKYNHDIALLELDEPLVLNSYVTPICIADKEYTNIFLKFGSGYVSGWGRVFHKGYSALVLQYLRVPLVDRATCLESTKFTIYNNMFCAGFHEGGRDSCQGDSGGPHVTEVEGTSFLTGIISWGEECAMKGKYGIYTKVSRYVNWIKNKTKLT	16.7 ratio
FIXa-I251S/R318Y/R338E/R403E/E410N (enzyme, also called I86S/R150Y/R170E/R233E/E240N (chymotrypsin numbering)) chain 1: YNSGKLEEFVQGNLERECMEEKCSFEEAREVFENTERTTEFWKQYVDGDQCESNPCLNGGSCKDDINSYECWCPFGFEGKNCELDVTCNIKNGRCEQFCKNSADNKVVCSCTEGYRLAENQKSCEPAVPFPCGRVSVSQTSKLTR chain 2: VVGGEDAKPGQFPWQVVLNGKVDAFCGGSIVNEKWIVTAAHCVETGVKITVVAGEHNIEETEHTEQKRNVSRIIPHHNYNAAINKYNHDIALLELDEPLVLNSYVTPICIADKEYTNIFLKFGSGYVSGWGRVFHKGYSALVLQYLRVPLVDRATCLESTKFTIYNNMFCAGFHEGGRDSCQGDSGGPHVTEVEGTSFLTGIISWGEECAMKGKYGIYTKVSEYVNWIKNKTKLT	1.5 ratio
FIXa-D104N/K106S/I251S/R318Y/R338E/E410N (enzyme) chain 1: YNSGKLEEFVQGNLERECMEEKCSFEEAREVFENTERTTEFWKQYVDGDQCESNPCLNGGSCKDDINSYECWCPFGFEGKNCELDVTCNIKNGRCEQFCKNSANNSVVCSCTEGYRLAENQKSCEPAVPFPCGRVSVSQTSKLTR chain 2: VVGGEDAKPGQFPWQVVLNGKVDAFCGGSIVNEKWIVTAAHCVETGVKITVVAGEHNIEETEHTEQKRNVSRIIPHHNYNAAINKYNHDIALLELDEPLVLNSYVTPICIADKEYTNIFLKFGSGYVSGWGRVFHKGYSALVLQYLRVPLVDRATCLESTKFTIYNNMFCAGFHEGGRDSCQGDSGGPHVTEVEGTSFLTGIISWGEECAMKGKYGIYTKVSRYVNWIKNKTKLT	7.7 ratio
FIXa-D104N/K106S/K247N/N249S/R318Y/R338E/R403E/E410N (enzyme) chain 1: YNSGKLEEFVQGNLERECMEEKCSFEEAREVFENTERTTEFWKQYVDGDQCESNPCLNGGSCKDDINSYECWCPFGFEGKNCELDVTCNIKNGRCEQFCKNSANNSVVCSCTEGYRLAENQKSCEPAVPFPCGRVSVSQTSKLTR chain 2: VVGGEDAKPGQFPWQVVLNGKVDAFCGGSIVNEKWIVTAAHCVETGVKITVVAGEHNIEETEHTEQNRSVIRIIPHHNYNAAINKYNHDIALLELDEPLVLNSYVTPICIADKEYTNIFLKFGSGYVSGWGRVFHKGYSALVLQYLRVPLVDRATCLESTKFTIYNNMFCAGFHEGGRDSCQGDSGGPHVTEVEGTSFLTGIISWGEECAMKGKYGIYTKVSEYVNWIKNKTKLT	1.1 ratio
FIXa-D104N/K106S/I251S/R318Y/R338E/R403E/E410N (enzyme) chain 1: YNSGKLEEFVQGNLERECMEEKCSFEEAREVFENTERTTEFWKQYVDGDQCESNPCLNGGSCKDDINSYECWCPFGFEGKNCELDVTCNIKNGRCEQFCKNSANNSVVCSCTEGYRLAENQKSCEPAVPFPCGRVSVSQTSKLTR chain 2: VVGGEDAKPGQFPWQVVLNGKVDAFCGGSIVNEKWIVTAAHCVETGVKITVVAGEHNIEETEHTEQKRNVSRIIPHHNYNAAINKYNHDIALLELDEPLVLNSYVTPICIADKEYTNIFLKFGSGYVSGWGRVFHKGYSALVLQYLRVPLVDRATCLESTKFTIYNNMFCAGFHEGGRDSCQGDSGGPHVTEVEGTSFLTGIISWGEECAMKGKYGIYTKVSEYVNWIKNKTKLT	1.7 ratio

The next lines start with the values.

KD-WT/KD-mut	Binder
1.5 ratio	FIXa-K247N/N249S/N260S/R318Y/R338E/R403E/E410N (enzyme, also called K82N/N84S/N95S/R150Y/R170E/R233E/E240N (chymotrypsin numbering)) chain 1: YNSGKLEEFVQGNLERECMEEKCSFEEAREVFENTERTTEFWKQYVDGDQCESNPCLNGGSCKDDINSYECWCPFGFEGKNCELDVTCNIKNGRCEQFCKNSADNKVVCSCTEGYRLAENQKSCEPAVPFPCGRVSVSQTSKLTR chain 2: VVGGEDAKPGQFPWQVVLNGKVDAFCGGSIVNEKWIVTAAHCVETGVKITVVAGEHNIEETEHTEQNRSVIRIIPHHNYSAAINKYNHDIALLELDEPLVLNSYVTPICIADKEYTNIFLKFGSGYVSGWGRVFHKGYSALVLQYLRVPLVDRATCLESTKFTIYNNMFCAGFHEGGRDSCQGDSGGPHVTEVEGTSFLTGIISWGEECAMKGKYGIYTKVSEYVNWIKNKTKLT
0.9 ratio	FIXa-K228N/K247N/N249S/R318Y/R338E/R403E/E410N (enzyme, also called K63N/K82N/N84S/R150Y/R170E/R233E/E240N (chymotrypsin numbering)) chain 1: YNSGKLEEFVQGNLERECMEEKCSFEEAREVFENTERTTEFWKQYVDGDQCESNPCLNGGSCKDDINSYECWCPFGFEGKNCELDVTCNIKNGRCEQFCKNSADNKVVCSCTEGYRLAENQKSCEPAVPFPCGRVSVSQTSKLTR chain 2: VVGGEDAKPGQFPWQVVLNGKVDAFCGGSIVNEKWIVTAAHCVETGVNITVVAGEHNIEETEHTEQNRSVIRIIPHHNYNAAINKYNHDIALLELDEPLVLNSYVTPICIADKEYTNIFLKFGSGYVSGWGRVFHKGYSALVLQYLRVPLVDRATCLESTKFTIYNNMFCAGFHEGGRDSCQGDSGGPHVTEVEGTSFLTGIISWGEECAMKGKYGIYTKVSEYVNWIKNKTKLT
10.7 ratio	FIXa-R318Y/R338E/E410N/T412V (enzyme, also called R150Y/R170E/E240N/T242V (chymotrypsin numbering)) chain 1: YNSGKLEEFVQGNLERECMEEKCSFEEAREVFENTERTTEFWKQYVDGDQCESNPCLNGGSCKDDINSYECWCPFGFEGKNCELDVTCNIKNGRCEQFCKNSADNKVVCSCTEGYRLAENQKSCEPAVPFPCGRVSVSQTSKLTR chain 2: VVGGEDAKPGQFPWQVVLNGKVDAFCGGSIVNEKWIVTAAHCVETGVKITVVAGEHNIEETEHTEQKRNVIRIIPHHNYNAAINKYNHDIALLELDEPLVLNSYVTPICIADKEYTNIFLKFGSGYVSGWGRVFHKGYSALVLQYLRVPLVDRATCLESTKFTIYNNMFCAGFHEGGRDSCQGDSGGPHVTEVEGTSFLTGIISWGEECAMKGKYGIYTKVSRYVNWIKNKVKLT
0.8 ratio	FIXa-K228N/K247N/N249S (enzyme, also called K63N/K82N/N84S (chymotrypsin numbering)) chain 1: YNSGKLEEFVQGNLERECMEEKCSFEEAREVFENTERTTEFWKQYVDGDQCESNPCLNGGSCKDDINSYECWCPFGFEGKNCELDVTCNIKNGRCEQFCKNSADNKVVCSCTEGYRLAENQKSCEPAVPFPCGRVSVSQTSKLTR chain 2: VVGGEDAKPGQFPWQVVLNGKVDAFCGGSIVNEKWIVTAAHCVETGVNITVVAGEHNIEETEHTEQNRSVIRIIPHHNYNAAINKYNHDIALLELDEPLVLNSYVTPICIADKEYTNIFLKFGSGYVSGWGRVFHKGRSALVLQYLRVPLVDRATCLRSTKFTIYNNMFCAGFHEGGRDSCQGDSGGPHVTEVEGTSFLTGIISWGEECAMKGKYGIYTKVSRYVNWIKEKTKLT
0.6 ratio	FIXa-K247N/N249S/N260S (enzyme, also called K82N/N84S/N95S (chymotrypsin numbering)) chain 1: YNSGKLEEFVQGNLERECMEEKCSFEEAREVFENTERTTEFWKQYVDGDQCESNPCLNGGSCKDDINSYECWCPFGFEGKNCELDVTCNIKNGRCEQFCKNSADNKVVCSCTEGYRLAENQKSCEPAVPFPCGRVSVSQTSKLTR chain 2: VVGGEDAKPGQFPWQVVLNGKVDAFCGGSIVNEKWIVTAAHCVETGVKITVVAGEHNIEETEHTEQNRSVIRIIPHHNYSAAINKYNHDIALLELDEPLVLNSYVTPICIADKEYTNIFLKFGSGYVSGWGRVFHKGRSALVLQYLRVPLVDRATCLRSTKFTIYNNMFCAGFHEGGRDSCQGDSGGPHVTEVEGTSFLTGIISWGEECAMKGKYGIYTKVSRYVNWIKEKTKLT
